Measurements published in US20190225685A1, “ANTI-DLL3 ANTIBODY DRUG CONJUGATES AND METHODS OF USE” (ABBVIE STEMCENTRX LLC, priority 2018, published 2019).

Columns and labels:
[1] = system: recurrent/refractory small cell lung cancer (SCLC); details: single agent; cited from earlier work
[2] = system: GB8 tumors (GBM PDX tumor line); assay: Glioblastoma PDX tumor growth suppression in immunodeficient mice; assay type: in vivo, female NOD/SCID mice; details: single dose 0.2 mg/kg, intraperitoneal, subcutaneous GB8 tumors, 20 days post-treatment (FIG. 3)
Experimental: (§1) A GBM PDX tumor line was grown subcutaneously in the flanks of female NOD/SCID mice using art-recognized techniques. Tumor volumes and mouse weights were monitored once or twice per week. When tumor volumes reached 150-250 mm^3, mice were randomly assigned to treatment groups and injected intraperitoneally with SC16.56 PDB3 or an isotype control human IgG1.PDB3. SC16.56 PDB3 comprises the same humanized antibody as found in Rova-t but employs a different PBD cytotoxin. Following treatment, tumor volumes and mouse weights were monitored until tumors exceeded 1000 mm^3 or mice became sick.

[3] = Adverse health effects in treated tumor-bearing mice; assay type: in vivo, female NOD/SCID mice; details: tumor-bearing NOD/SCID mice treated intraperitoneally
Experimental: as §1

In the case of rovalpituzumab tesirine [Rova-T], the clinical activity [1] is listed as “clinically demonstrated single agent activity”.

B1: SC16.56 PBD3: anti-DLL3 ADC; comprises the same humanized antibody as found in Rova-T but employs a different PBD cytotoxin (conjugate, chains of the INN, looked up)
VH: QVQLVQSGAEVKKPGASVKVSCKASGYTFTNYGMNWVRQAPGQGLEWMGWINTYTGEPTYADDFKGRVTMTTDTSTSTAYMELRSLRSDDTAVYYCARIGDSSPSDYWGQGTLVTVSS
VL: EIVMTQSPATLSVSPGERATLSCKASQSVSNDVVWYQQKPGQAPRLLIYYASNRYTGIPARFSGSGSGTEFTLTISSLQSEDFAVYYCQQDYTSPWTFGQGTKLEIK
modifications: PBD3 cytotoxin conjugate
In the case of B1, the “tumor growth (tumor volume)” value [2] is reported as “tumor suppression” and the adverse health effects [3] is reported as “did not exhibit any adverse health effects beyond those typically seen in immunodeficient, tumor-bearing NOD/SCID mice”.
